The values that follow come from patent US20130243795A1 (Janssen / Centocor, published 2013).

In test [1] the target is T1, Human CD27 ECD truncated (ECD 1-121, cleavage site, His6) (human).
T1 construct: also called human CD27 ECD with His Tag; CD27-His
T1 chain: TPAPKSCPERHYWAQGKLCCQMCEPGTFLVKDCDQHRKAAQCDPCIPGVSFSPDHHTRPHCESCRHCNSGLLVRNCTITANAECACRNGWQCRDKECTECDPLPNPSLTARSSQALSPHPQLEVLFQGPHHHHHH
Kind of test: ProteOn SPR, culture supernatants.

Test [2] addresses T1, Human CD27 ECD truncated (ECD 1-121, …). Kind of test: ProteOn SPR, culture supernatants.
The target is the same in test [3]. Kind of test: ProteOn SPR, purified mAb, CD27-His.
In test [4] the target is T2, Human CD27 ECD, monomeric soluble (construct limits not stated) (human, UniProt P26842 20-191).
T2 construct: extracellular domain; target of the Biacore assays; also called monomeric soluble CD27; CD27-His
T2 sequence (P26842 20-191): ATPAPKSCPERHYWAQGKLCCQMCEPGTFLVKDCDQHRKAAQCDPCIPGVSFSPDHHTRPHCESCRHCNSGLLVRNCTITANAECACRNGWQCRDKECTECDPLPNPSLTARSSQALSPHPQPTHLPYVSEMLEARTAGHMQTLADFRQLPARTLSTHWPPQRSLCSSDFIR
Kind of test: Biacore SPR, purified mAb, CD27-His. Background: In SPR one partner is held on a chip, and binding of the other changes the refractive index at the surface.

Test [5] concerns the target Human CD27, full length on the cell surface (human, UniProt P26842 21-260). Kind of test: cell-based or functional assay.
The target of test [6] is T2, Human CD27 ECD, monomeric soluble …. Kind of test: Biacore SPR, purified mAb.
In test [7] the target is T1, Human CD27 ECD truncated (ECD 1-121, …). The experiment in a line: ProteOn SPR, culture supernatants.

A word on the Kd: it is the free concentration of one partner at which half of the binding sites on the other are occupied at equilibrium, for simple one-to-one binding. Higher therefore signals lower affinity. Usually koff stands for the rate constant with which the complex falls apart. The low end stands for slow dissociation, the high end for fast dissociation. The term kon denotes the second-order rate constant of association. Read a high kon as fast association.

Chain of Human CD27, full length on the cell surface (P26842 21-260 H233R): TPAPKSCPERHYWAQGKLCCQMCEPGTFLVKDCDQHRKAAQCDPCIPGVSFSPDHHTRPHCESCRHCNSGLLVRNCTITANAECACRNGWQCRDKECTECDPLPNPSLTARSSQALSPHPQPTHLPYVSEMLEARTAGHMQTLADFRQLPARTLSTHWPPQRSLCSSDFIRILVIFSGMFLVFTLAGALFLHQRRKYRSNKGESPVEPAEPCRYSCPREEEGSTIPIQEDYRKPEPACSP

B1: M160 (antibody, human IgG4, V domains shown)
VH: QVQLVQSGAEVKKPGASVKVSCKASGYAFSSSWMNWVRQAPGQGLEWMGRIYSGDGDTNYNGKFKGRVTMTRDTSTSTVYMELSSLRSEDTAVYYCARSDYYGDYGFAYWGQGTLVTVSS
VL: DIQMTQSPSSLSASVGDRVTITCKASQSVDYAGDSFMNWYQQKPGKAPKLLIYAASNLESGVPSRFSGSGSGTDFTLTISSLQPEDFATYYCQQSNEDPYTFGQGTKVEIK
notes: also called H196,L219
Take B1: binding in test [1] was put at a Kd of 0.12 nM. The “fold decrease in KD against the parental mAb M159” value (from here on “fold decrease in KD”) in test [2] was found to be 20 fold. In test [3], the Kd was 0.108 nM, the koff stood at 0.000223 s⁻¹ and the kon was 2.07e+06 M⁻¹ s⁻¹. Also, in test [4], binding was put at a Kd of 0.117 nM, the koff was 0.00018 s⁻¹ and the kon is 1.6e+06 M⁻¹ s⁻¹.

B2: M166 (antibody, human IgG4, V domains shown)
VH: QVQLVQSGAEVKKPGASVKVSCKASGYAFSSSWMNWVRQAPGQGLEWMGRIYSGDGDTNYNGKFKGRVTMTRDTSTSTVYMELSSLRSEDTAVYYCARSDYYGDYGFAYWGQGTLVTVSS
VL: DIQMTQSPSSLSASVGDRVTITCKASQSVDYAHESFMNWYQQKPGKAPKLLIYAASNLESGVPSRFSGSGSGTDFTLTISSLQPEDFATYYCQQSNEDPYTFGQGTKVEIK
notes: also called H196,L217
In turn, B2 registered a Kd in test [1] of 0.1 nM. Moreover, in test [2], the “fold decrease in KD” value was found to be 20 fold. In test [3], this molecule came in with a Kd of 0.127 nM, a koff of 0.000234 s⁻¹ and a kon of 1.84e+06 M⁻¹ s⁻¹. Further, in test [4], the Kd was determined as 0.126 nM, the koff came to 0.000203 s⁻¹ and the kon came to 1.62e+06 M⁻¹ s⁻¹.

B3: M157 (antibody, human IgG4, V domains shown)
VH: QVQLVQSGAEVKKPGASVKVSCKASGYAFSSSWMNWVRQAPGQGLEWMGRIYQGDGDTNYNGKFKGRVTMTRDTSTSTVYMELSSLRSEDTAVYYCARSDYYGDYGFAYWGQGTLVTVSS
VL: DIQMTQSPSSLSASVGDRVTITCKASQSVDYAGDSYMNWYQQKPGKAPKLLIYAASNLESGVPSRFSGSGSGTDFTLTISSLQPEDFATYYCQQSNEDPYTFGQGTKVEIK
notes: also called H197,L220
In turn, B3 displayed a Kd in test [1] of 0.39 nM. Besides, the “fold decrease in KD” value in test [2] is 6 fold.

B4: M158 (antibody, human IgG4, V domains shown)
VH: QVQLVQSGAEVKKPGASVKVSCKASGYAFSSSWMNWVRQAPGQGLEWMGRIYSGDGDTNYNGKFKGRVTMTRDTSTSTVYMELSSLRSEDTAVYYCARSDYYGDYGFAYWGQGTLVTVSS
VL: DIQMTQSPSSLSASVGDRVTITCKASQSVDYAGDSYMNWYQQKPGKAPKLLIYAASNLESGVPSRFSGSGSGTDFTLTISSLQPEDFATYYCQQSNEDPYTFGQGTKVEIK
notes: also called H196,L220
Molecule B4 gave a Kd in test [1] of 0.36 nM. In addition, the “fold decrease in KD” value in test [2] stood at 6 fold. In test [4], this molecule registered a Kd of 0.439 nM, a koff of 0.00066 s⁻¹ and a kon of 1.5e+06 M⁻¹ s⁻¹.

B5: M149 (antibody, human IgG4, V domains shown)
VH: QVQLVQSGAEVKKPGASVKVSCKASGYAFSSSWMNWVRQAPGQGLEWMGRIYPGDGDTNYNGKFKGRVTMTRDTSTSTVYMELSSLRSEDTAVYYCARSDYYGDYGFAYWGQGTLVTVSS
VL: DIQMTQSPSSLSASVGDRVTITCKASQSVDYAGDSFMNWYQQKPGKAPKLLIYAASNLESGVPSRFSGSGSGTDFTLTISSLQPEDFATYYCQQSNEDPYTFGQGTKVEIK
notes: also called H25,L219
B5: the affinity in test [1], expressed as Kd, was 0.54 nM. Further, the “fold decrease in KD” value in test [2] was found to be 4 fold.

B6: M155 (antibody, human IgG4, V domains shown)
VH: QVQLVQSGAEVKKPGASVKVSCKASGYAFSSSWMNWVRQAPGQGLEWMGRIYPGDGDTNYNGKFKGRVTMTRDTSTSTVYMELSSLRSEDTAVYYCARSDYYGDYGFAYWGQGTLVTVSS
VL: DIQMTQSPSSLSASVGDRVTITCKASQSVDYAHESFMNWYQQKPGKAPKLLIYAASNLESGVPSRFSGSGSGTDFTLTISSLQPEDFATYYCQQSNEDPYTFGQGTKVEIK
notes: also called H25,L217
In turn, B6 registered a Kd in test [1] of 0.37 nM. In addition, the “fold decrease in KD” value in test [2] was determined as 6 fold.

B7: M696 (antibody, V domains shown)
VH: QVQLVESGGGLVKPGGSLRLSCAASGFTFSSYGMSWIRQAPGKGLEWVSYIDEGGGQTIYPDSVKGRFTISRDNAKNSLYLQMNSLRAEDTAVYYCARHRGNPFDYWGQGTLVTVSS
VL: DIQMTQSPSSLSASVGDRVTITCRASKSVSHVRWSFMHWYQQKPGKAPKLLIYLASKLESGVPSRFSGSGSGTDFTFTISSLQPEDIATYYCQHSRELPWTFGQGTKVEIK
notes: also called single-gene DNA ID 696
With B7, in test [5], the “NF-kB Assay IC50” value was found to be 0.33 nM. Further, in test [6], the Kd worked out at 0.057 nM, the koff turned out to be 2.1e-05 s⁻¹ and the kon came to 370000 M⁻¹ s⁻¹.

B8: M694 (antibody, V domains shown)
VH: QVQLVESGGGLVKPGGSLRLSCAASGFTFSSYGMSWIRQAPGKGLEWVSYIDEGGGQTIYPDSVKGRFTISRDNAKNSLYLQMNSLRAEDTAVYYCARHRGNPFDYWGQGTLVTVSS
VL: DIQMTQSPSSLSASVGDRVTITCRASKSVSEGRWSFMHWYQQKPGKAPKLLIYVASRLESGVPSRFSGSGSGTDFTFTISSLQPEDIATYYCQHSRELPWTFGQGTKVEIK
notes: also called single-gene DNA ID 694
In the case of B8, the “NF-kB Assay IC50” value in test [5] is 0.42 nM. In test [6], this molecule returned a Kd of 0.105 nM, an off-rate (koff) of 7.6e-05 s⁻¹ and a kon of 480000 M⁻¹ s⁻¹.

B9: M707 (antibody, V domains shown)
VH: EVQLLESGGGLVQPGGSLRLSCAASGFTFSSYTMSWVRQAPGKGLEWVSAIDHGGGQTLYPDSVKGRFTISRDNSKNTLYLQMNSLRAEDTAVYYCARHRGNPFDYWGQGTLVTVSS
VL: DIQMTQSPSSLSASVGDRVTITCRASKSVSHVRWSFMHWYQQKPGKAPKLLIYLASNLESGVPSRFSGSGSGTDFTLTISSLQPEDFATYYCQHSRELPWTFGQGTKVEIK
notes: also called single-gene DNA ID 707
On to B9, for which, in test [5], the “NF-kB Assay IC50” value worked out at 0.26 nM. In addition, in test [6], the Kd amounted to 0.213 nM, the koff turned out to be 0.000124 s⁻¹ and the kon stood at 585000 M⁻¹ s⁻¹.

B10: M708 (antibody, V domains shown)
VH: EVQLLESGGGLVQPGGSLRLSCAASGFTFSSYTMSWVRQAPGKGLEWVSVIDHGGGSTHYPDSVKGRFTISRDNSKNTLYLQMNSLRAEDTAVYYCARHRGNPFDYWGQGTLVTVSS
VL: DIQMTQSPSSLSASVGDRVTITCRASKSVSTSGYSFMHWYQQKPGKAPKLLIYVGSRLDYGVPSRFSGSGSGTDFTLTISSLQPEDFATYYCQHSRELPWTFGQGTKVEIK
notes: also called single-gene DNA ID 708
For B10, the “NF-kB Assay IC50” value in test [5] is 0.26 nM. In test [6], this molecule yielded a Kd of 0.35 nM, a koff of 0.000225 s⁻¹ and a kon of 643000 M⁻¹ s⁻¹.

B11: M596 (antibody, V domains shown)
VH: EVQLVQSGAEVKKPGESLKISCKGSGYAFSSSWMNWVRQMPGKGLEWMGRIYAGDGDTNYSPSFQGQVTISADKSISTAYLQWSSLKASDTAMYYCARSDYYGDYGFAYWGQGTLVTVSS
VL: DIVMTQSPDSLAVSLGERATINCKASQSVDYAGDSWMNWYQQKPGQPPKLLIYTASNLESGVPDRFSGSGSGTDFTLTISSLLAEDVAVYYCQQSNEDPYTFGQGTKLEIK
notes: IgG; subclass not restated (path 1 mAbs were human IgG1/kappa); also called H239/L257
The molecule B11 returned a Kd in test [7] of 0.025 nM.

B12: M600 (antibody, V domains shown)
VH: EVQLVQSGAEVKKPGESLKISCKGSGYAFSSSWMNWVRQMPGKGLEWMGRIYAGDGDTNYSPSFQGQVTISADKSISTAYLQWSSLKASDTAMYYCARSDYYGDYGFAYWGQGTLVTVSS
VL: DIVMTQSPDSLAVSLGERATINCKASQSVDYAGDSFMNWYQQKPGQPPKLLIYAASNLESGVPDRFSGSGSGTDFTLTISSLQAEDVAVYYCQQSNEDPYTFGQGTKLEIK
notes: IgG; subclass not restated; also called H239/L255
In the case of B12, in test [7], binding was put at a Kd of 0.049 nM.

B13: M703 (antibody, V domains shown)
VH: EVQLVQSGAEVKKPGESLKISCKGSGYAFSSSWMNWVRQMPGKGLEWMGRIYAGDADTAYSPSFQGQVTISADKSISTAYLQWSSLKASDTAMYYCARSDYYGDYGFAYWGQGTLVTVSS
VL: DIVMTQSPDSLAVSLGERATINCKASQSVDYAGESFMNWYQQKPGQPPKLLIYAASNLESGVPDRFSGSGSGTDFTLTISSLQAEDVAVYYCQQSNEDPYTFGQGTKLEIK
notes: IgG; subclass not restated; also called H270/L267
As to B13, binding in test [7] was put at a Kd of 0.028 nM. Compared with the last molecule, the Kd is about 1.8-fold lower.

B14: M706 (antibody, V domains shown)
VH: EVQLVQSGAEVKKPGESLKISCKGSGYAFSSSWMNWVRQMPGKGLEWMGRIYAGDADTNYAPSFQGQVTISADKSISTAYLQWSSLKASDTAMYYCARSDYYGDYGFAYWGQGTLVTVSS
VL: DIVMTQSPDSLAVSLGERATINCKASQSVDYAGESFMNWYQQKPGQPPKLLIYAASNLESGVPDRFSGSGSGTDFTLTISSLQAEDVAVYYCQQSNEDPYTFGQGTKLEIK
notes: IgG; subclass not restated; also called H272/L267
In turn, B14 returned a Kd in test [7] of 0.013 nM.

B15: M678 (antibody, V domains shown)
VH: EVQLVQSGAEVKKPGESLKISCKGSGYAFSSSWMNWVRQMPGKGLEWMGRIYAGDGDTAYSPSFQGQVTISADKSISTAYLQWSSLKASDTAMYYCARSDYYGDYGFAYWGQGTLVTVSS
VL: DIVMTQSPDSLAVSLGERATINCKASQSVDYAGDSFMNWYQQKPGQPPKLLIYAASNLESGVPDRFSGSGSGTDFTLTISSLQAEDVAVYYCQQSNEDPYTFGQGTKLEIK
notes: IgG; subclass not restated; also called H259/L255
The molecule B15 came in with a Kd in test [7] of 0.053 nM.

B16: M680 (antibody, V domains shown)
VH: EVQLVQSGAEVKKPGESLKISCKGSGYAFSSSWMNWVRQMPGKGLEWMGRIYAGDGDTNYAPSFQGQVTISADKSISTAYLQWSSLKASDTAMYYCARSDYYGDYGFAYWGQGTLVTVSS
VL: DIVMTQSPDSLAVSLGERATINCKASQSVDYAGDSFMNWYQQKPGQPPKLLIYAASNLESGVPDRFSGSGSGTDFTLTISSLQAEDVAVYYCQQSNEDPYTFGQGTKLEIK
notes: IgG; subclass not restated; also called H260/L255
In turn, B16 gave a Kd in test [7] of 0.03 nM.
